Where two headings read alike, the source gives them in different places.
Key:
[1] = molecular target: C1q complement (rabbit serum as complement source) (rabbit); experiment: cell-based or functional assay
[2] = molecular target: FcgRIIIa receptor (CD16a) on human NK cells (human) (UniProt P08637); experiment: cell-based or functional assay
[3] = molecular target: C1q complement (rabbit serum as complement source) (rabbit); experiment: cell-based or functional assay; remark: listed apart in the source
[4] = molecular target: CD32aH (FcgRIIa receptor, H at position 131) (human) (UniProt P12318); experiment: ELISA, purified IgG on coated receptor, ratio against wild-type
[5] = molecular target: CD32aR (FcgRIIa receptor, R at position 131) (human) (UniProt P12318); experiment: as above
[6] = molecular target: CD32b (FcgRIIb receptor) (human) (UniProt P31994); experiment: as above
[7] = molecular target: CD64 (UniProt P12314); experiment: as above
[8] = molecular target: C1q complement (rabbit serum as complement source) (rabbit); experiment: cell-based or functional assay; remark: listed apart in the source

Chain of CD64 (P12314 16-288 limits assumed): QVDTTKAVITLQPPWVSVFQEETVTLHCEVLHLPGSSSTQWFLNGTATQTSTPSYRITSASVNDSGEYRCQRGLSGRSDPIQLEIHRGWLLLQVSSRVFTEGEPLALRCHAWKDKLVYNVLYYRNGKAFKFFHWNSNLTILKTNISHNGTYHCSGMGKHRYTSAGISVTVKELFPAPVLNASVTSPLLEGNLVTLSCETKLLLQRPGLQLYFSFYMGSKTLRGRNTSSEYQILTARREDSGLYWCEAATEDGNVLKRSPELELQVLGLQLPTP
Chain of FcgRIIIa receptor (CD16a) on human NK cells (human) (P08637 17-254): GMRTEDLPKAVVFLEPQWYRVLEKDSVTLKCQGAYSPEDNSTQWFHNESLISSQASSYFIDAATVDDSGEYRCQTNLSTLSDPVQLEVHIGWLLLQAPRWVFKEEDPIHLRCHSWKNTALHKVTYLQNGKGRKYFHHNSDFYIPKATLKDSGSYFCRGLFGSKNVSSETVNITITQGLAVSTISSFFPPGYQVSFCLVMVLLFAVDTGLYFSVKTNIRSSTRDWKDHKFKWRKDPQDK
Chain of CD32b (FcgRIIb receptor) (human) (P31994 46-217): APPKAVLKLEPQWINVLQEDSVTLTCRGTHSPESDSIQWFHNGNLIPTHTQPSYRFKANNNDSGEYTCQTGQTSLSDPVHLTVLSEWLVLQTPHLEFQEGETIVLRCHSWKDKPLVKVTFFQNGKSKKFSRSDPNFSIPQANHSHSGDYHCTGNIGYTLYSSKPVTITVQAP
Chain of CD32aH (FcgRIIa receptor, H at position 131) (human) (P12318 34-217): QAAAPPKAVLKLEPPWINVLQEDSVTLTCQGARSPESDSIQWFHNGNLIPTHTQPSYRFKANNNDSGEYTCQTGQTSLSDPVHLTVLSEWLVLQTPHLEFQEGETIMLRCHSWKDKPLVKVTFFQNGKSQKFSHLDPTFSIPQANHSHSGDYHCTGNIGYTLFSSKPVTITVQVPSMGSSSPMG

Row | Substance | CDC [1] | ADCC [2] | ADCC, EC50: Antibody concentration (ng/ml) giving 50% maximum lysis of an internal control [2] [ng/mL] | ADCC, Ratio [WT]/[antibody] [2] | CDC, Antibody concentration (ng/ml) giving 50% lysis of an internal control [3] [ng/mL] | CDC, Ratio [WT]/[antibody] [3] | ELISA ratio (purified antibodies) [4] | ELISA ratio (purified antibodies) [5] | ELISA ratio (purified antibodies) [6] | ELISA ratio (purified antibodies) [7] | CDC, Antibody concentration (ng/ml) giving 50% lysis of an internal control [1] [ng/mL] | CDC, Ratio [WT]/[antibody] [1] | ADCC, EC45: Antibody concentration (ng/ml) giving 45% maximum lysis of an internal control [2] [ng/mL] | CDC, Antibody concentration (ng/ml) giving 50% lysis of an internal control [8] [ng/mL] | CDC, Ratio [WT]/[antibody] [8]
1 | anti-CD20 IgG variant A3A-14 (S298N, A378V) (antibody) | 0.7 | 12.8 | 0.82 | 12.8 | 341 | 0.7 | 1.1 | 0.8 | 0.9 | 1.6 | – | – | – | – | –
2 | anti-CD20 IgG variant A3A-105D (G316D, K326E, A378V) (antibody) | 6.1 | 8.3 | 1.27 | 8.28 | 38.5 | 6.14 | 1.4 | 2.6 | 2 | 1.5 | – | – | – | – | –
3 | anti-CD20 IgG variant A3A-184 (K334N, P352S, V397M) (antibody) | 2.2 | 5.3 | – | – | – | – | 1.33 | 3.2 | 3.3 | 1.4 | 210 | 1.25 | – | – | –
4 | anti-CD20 IgG variant A3A-184A (K334N, P352S, V397M, A378V) (antibody) | 3.2 | 30.9 | 0.34 | 30.9 | 74.1 | 3.2 | 1.3 | 4.3 | 3.1 | 1.5 | – | – | – | – | –
5 | anti-CD20 IgG variant DL4A-54 (P352L, Q418P) (antibody) | – | – | > 5000 | < 0.002 | 165 | 1.44 | – | – | – | – | – | – | – | – | –
6 | anti-CD20 IgG variant G3A-43 (A231V, A378V) (antibody) | 2.8 | 12 | – | – | – | – | 5.3 | 3.6 | 2.7 | 1.4 | 168 | 1.55 | – | – | –
7 | anti-CD20 IgG variant G3A-45 (K246R, A378V) (antibody) | – | – | – | – | – | – | – | – | – | – | 195 | 1.34 | – | – | –
8 | anti-CD20 IgG variant G3A-88 (K320E, T394P, G402D) (antibody) | 0.9 | 1.3 | 8.07 | 1.3 | 274 | 0.86 | 2.94 | 3.7 | 3.9 | 2.4 | – | – | – | – | –
9 | anti-CD20 IgG variant G3A-95 (I336T, A378V) (antibody) | 1.3 | 10.8 | 0.97 | 10.8 | 177 | 1.34 | 0.7 | 0.9 | 1 | 1.3 | – | – | – | – | –
10 | anti-CD20 IgG variant G3A-103 (K248E, A378V) (antibody) | 7.1 | 33.9 | 0.31 | 33.9 | 33.3 | 7.1 | 0.5 | 0.9 | 1.2 | 1.2 | – | – | – | – | –
11 | anti-CD20 IgG variant G3A-139 (T307N, V323I) (antibody) | – | – | 2.8 | 3.75 | 85.7 | 2.76 | – | – | – | – | – | – | – | – | –
12 | anti-CD20 IgG variant J3A-06 (A378T, V397M, V412M) (antibody) | 3.7 | 8.3 | 1.27 | 8.28 | 64.1 | 6.7 | 0.84 | 2 | 2.4 | 1.3 | – | – | – | – | –
13 | anti-CD20 IgG variant J3A-14 (K326T) (antibody) | 3.7 | – | 7.39 | – | 64.1 | – | – | – | – | – | – | – | – | – | –
14 | anti-CD20 IgG variant J3A-16 (N286Y, P352S, A378V) (antibody) | 1.8 | 8.3 | 1.27 | 8.28 | 132 | 1.79 | 2.61 | 1.7 | 1.7 | 1.3 | – | – | – | – | –
15 | anti-CD20 IgG variant J3A-28 (E333G, A378T, V397M) (antibody) | 7.6 | 18.4 | 0.57 | 18.4 | 31 | 7.64 | 1.1 | 1.3 | 1.6 | 1.3 | – | – | – | – | –
16 | anti-CD20 IgG variant J3B-16 (S267G, A378T, V397M) (antibody) | – | – | – | – | – | – | – | – | – | – | 210 | 1.25 | – | – | –
17 | anti-CD20 IgG variant J3B-23 (N286I, A378V, F423Y) (antibody) | 2.4 | 18.4 | 0.57 | – | – | – | – | – | – | – | – | – | – | – | –
18 | anti-CD20 IgG variant J3B-118 (P396L, N421T) (antibody) | 12.2 | 9.7 | – | – | – | – | 1 | 1.1 | 1 | 1.6 | 38.7 | 6.77 | – | – | –
19 | anti-CD20 IgG variant J3B-118A (P396L, N421T, A378V) (antibody) | 11 | 10.8 | 0.97 | 10.8 | 21.6 | 11 | 2.7 | 1.8 | 3.7 | 1.4 | – | – | – | – | –
20 | anti-CD20 IgG variant K3B-87 (V323I, F405L) (antibody) | – | – | 16.3 | 0.64 | 107 | 2.22 | – | – | – | – | – | – | – | – | –
21 | anti-CD20 IgG variant N3A-27 (K290E, A378V, K392R, S440G) (antibody) | – | – | – | 0.86 | – | – | – | – | – | – | – | – | 18.7 | 179 | 0.74
22 | anti-CD20 IgG variant N3A-32 (K326T, K334N, P352S, N421T) (antibody) | – | – | – | 0.55 | – | – | – | – | – | – | – | – | 2.9 | 66 | 2.02
23 | anti-CD20 IgG variant N3A-58 (V284L, K334R, A378V, K447N) (antibody) | – | – | – | 0.36 | – | – | – | – | – | – | – | – | 4.4 | 36 | 3.69
24 | anti-CD20 IgG variant O3A-44 (A378V, K439R) (antibody) | – | – | – | 0.62 | – | – | – | – | – | – | – | – | 2.6 | 129 | 1.03
25 | anti-CD20 IgG variant O3A-86 (K248E, K290E, N361H, P396L) (antibody) | – | – | – | 0.36 | – | – | – | – | – | – | – | – | 4.4 | 44 | 3.02
26 | anti-CD20 IgG variant P4B-89 (T307P, T366A, A378V) (antibody) | – | – | – | 0.44 | – | – | – | – | – | – | – | – | 3.6 | 115 | 1.16
27 | anti-CD20 IgG variant Q4B-68 (T307P, A378V, T394P) (antibody) | – | – | – | 0.94 | – | – | – | – | – | – | – | – | 1.7 | 126 | 1.06
28 | anti-CD20 IgG variant QL2A-16 (K248E, N421T) (antibody) | – | – | 4.36 | 2.41 | 51.5 | 4.59 | – | – | – | – | – | – | – | – | –
